Assays:
[1] = target: FGFR3 (UniProt P22607); assay: phosphorylation enrichment, bacterial display (enrichment ratio); higher = better substrate or ligand; peptides without Tyr show the background
[2] = tested on: c-Abl (mouse); assay: as above
[3] = tested on: Fer (mouse); assay: as above
[4] = target: Fes (UniProt P07332); assay: as above
[5] = target: Jak2 (UniProt O60674); assay: as above
[6] = tested on: c-Src; assay: as above
[7] = target: MERTK (UniProt Q12866); assay: as above
[8] = target: EPHB2 (UniProt P29323); assay: as above
[9] = tested on: AncSZ; assay: as above
[10] = target: Hck (UniProt P08631); assay: as above
Hck, sequence (P08631 whole entry, looked up): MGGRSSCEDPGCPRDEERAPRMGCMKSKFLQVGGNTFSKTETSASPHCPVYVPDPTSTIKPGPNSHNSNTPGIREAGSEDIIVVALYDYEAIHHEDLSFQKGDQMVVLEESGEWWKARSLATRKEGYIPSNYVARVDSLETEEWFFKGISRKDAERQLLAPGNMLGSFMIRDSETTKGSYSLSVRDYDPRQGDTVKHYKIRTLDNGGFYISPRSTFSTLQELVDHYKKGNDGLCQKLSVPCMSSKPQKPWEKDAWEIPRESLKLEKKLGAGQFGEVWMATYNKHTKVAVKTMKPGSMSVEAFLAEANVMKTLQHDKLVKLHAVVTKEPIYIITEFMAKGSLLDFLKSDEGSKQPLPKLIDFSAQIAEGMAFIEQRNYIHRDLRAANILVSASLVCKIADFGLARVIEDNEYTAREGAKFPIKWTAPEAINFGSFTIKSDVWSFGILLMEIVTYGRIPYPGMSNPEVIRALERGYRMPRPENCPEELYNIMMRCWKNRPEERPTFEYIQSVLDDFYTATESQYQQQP

[11] = target: EPHB1 (UniProt P54762); assay: as above
EPHB1, sequence (P54762 whole entry, looked up): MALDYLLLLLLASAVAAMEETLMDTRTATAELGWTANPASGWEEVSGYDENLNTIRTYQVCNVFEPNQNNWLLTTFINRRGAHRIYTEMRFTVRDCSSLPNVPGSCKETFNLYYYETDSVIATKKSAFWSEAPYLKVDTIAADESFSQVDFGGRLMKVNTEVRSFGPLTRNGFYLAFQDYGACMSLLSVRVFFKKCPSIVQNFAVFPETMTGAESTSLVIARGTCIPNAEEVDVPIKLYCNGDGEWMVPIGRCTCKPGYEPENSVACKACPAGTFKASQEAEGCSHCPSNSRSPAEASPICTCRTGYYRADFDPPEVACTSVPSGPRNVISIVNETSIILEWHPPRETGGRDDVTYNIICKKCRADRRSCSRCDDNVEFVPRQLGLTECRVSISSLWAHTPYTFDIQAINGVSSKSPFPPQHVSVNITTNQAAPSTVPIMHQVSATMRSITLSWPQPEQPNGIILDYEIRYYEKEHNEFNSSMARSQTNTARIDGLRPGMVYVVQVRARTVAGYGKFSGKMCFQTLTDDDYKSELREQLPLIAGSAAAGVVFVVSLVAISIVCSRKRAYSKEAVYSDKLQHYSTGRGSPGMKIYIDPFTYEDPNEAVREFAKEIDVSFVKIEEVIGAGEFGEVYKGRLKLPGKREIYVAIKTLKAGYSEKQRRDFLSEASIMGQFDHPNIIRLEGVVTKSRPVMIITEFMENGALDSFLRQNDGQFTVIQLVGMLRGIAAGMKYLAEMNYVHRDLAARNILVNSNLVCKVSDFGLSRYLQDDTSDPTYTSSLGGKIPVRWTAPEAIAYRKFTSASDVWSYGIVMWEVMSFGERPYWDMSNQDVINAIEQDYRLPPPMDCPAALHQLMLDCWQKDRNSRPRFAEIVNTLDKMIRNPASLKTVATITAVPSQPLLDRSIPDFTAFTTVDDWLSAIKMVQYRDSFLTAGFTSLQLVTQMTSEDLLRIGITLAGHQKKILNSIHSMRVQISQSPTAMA

[12] = target: Fyn (UniProt P06241); assay: as above
Fyn, sequence (P06241 whole entry, looked up): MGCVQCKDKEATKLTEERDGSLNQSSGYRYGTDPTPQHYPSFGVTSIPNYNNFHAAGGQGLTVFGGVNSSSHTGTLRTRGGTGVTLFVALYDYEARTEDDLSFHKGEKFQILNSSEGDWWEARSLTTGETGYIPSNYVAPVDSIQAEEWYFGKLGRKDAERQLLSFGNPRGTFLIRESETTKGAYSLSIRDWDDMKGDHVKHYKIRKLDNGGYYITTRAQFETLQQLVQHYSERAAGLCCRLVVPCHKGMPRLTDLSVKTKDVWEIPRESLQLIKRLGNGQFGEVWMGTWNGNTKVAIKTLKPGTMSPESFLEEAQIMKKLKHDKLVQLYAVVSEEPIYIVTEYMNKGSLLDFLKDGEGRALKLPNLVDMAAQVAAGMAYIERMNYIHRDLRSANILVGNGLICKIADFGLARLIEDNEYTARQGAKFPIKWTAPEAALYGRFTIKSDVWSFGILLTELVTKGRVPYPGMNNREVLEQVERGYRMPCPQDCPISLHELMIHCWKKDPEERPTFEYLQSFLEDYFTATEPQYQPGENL

[13] = target: FGFR1 (UniProt P11362); assay: as above
FGFR1, sequence (P11362 whole entry, looked up): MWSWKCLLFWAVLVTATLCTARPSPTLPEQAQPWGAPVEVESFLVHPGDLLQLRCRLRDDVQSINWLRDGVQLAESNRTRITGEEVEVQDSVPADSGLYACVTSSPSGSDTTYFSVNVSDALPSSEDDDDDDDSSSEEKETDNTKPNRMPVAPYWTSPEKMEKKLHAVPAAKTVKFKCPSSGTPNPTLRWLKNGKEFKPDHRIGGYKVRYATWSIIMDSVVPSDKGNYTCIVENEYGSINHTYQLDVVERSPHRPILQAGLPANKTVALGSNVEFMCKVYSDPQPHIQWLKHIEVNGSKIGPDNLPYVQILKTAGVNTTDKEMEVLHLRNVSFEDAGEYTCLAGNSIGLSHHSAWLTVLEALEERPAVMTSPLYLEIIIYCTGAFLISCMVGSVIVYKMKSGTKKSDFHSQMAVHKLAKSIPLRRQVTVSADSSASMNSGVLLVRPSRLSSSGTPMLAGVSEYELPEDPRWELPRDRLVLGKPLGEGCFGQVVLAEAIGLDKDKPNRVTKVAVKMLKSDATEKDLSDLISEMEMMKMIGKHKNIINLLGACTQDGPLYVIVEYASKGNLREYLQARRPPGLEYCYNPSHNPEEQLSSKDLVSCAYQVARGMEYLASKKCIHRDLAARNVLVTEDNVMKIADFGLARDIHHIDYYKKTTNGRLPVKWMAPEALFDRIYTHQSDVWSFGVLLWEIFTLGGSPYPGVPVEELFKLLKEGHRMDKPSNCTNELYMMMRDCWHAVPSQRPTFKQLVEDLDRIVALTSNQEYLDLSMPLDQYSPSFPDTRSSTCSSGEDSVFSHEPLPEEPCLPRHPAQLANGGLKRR

[14] = target: Grb2 SH2 (UniProt P62993); assay: SH2 binding enrichment of the phosphorylated peptide, bacterial display (enrichment ratio); higher = better substrate or ligand; peptides without Tyr show the background
[15] = target: SHP2-C SH2; assay: as above
[16] = target: c-Src SH2; assay: as above
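For SH2 binding enrichment of the phosphorylated peptide, bacterial display in this document: peptide library displayed on the E. coli surface as eCPX fusions, selected cells deep-sequenced, score is each peptide's frequency after selection divided by its frequency in the input.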
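For phosphorylation enrichment, bacterial display in this document: 11-residue human phosphosite peptides and single-mutation variants displayed on the E. coli surface, counted by deep sequencing, each peptide's frequency after selection divided by its frequency in the unselected input library; frequency after pTyr selection over input frequency; kinase dosed for 20-30% of maximal phosphorylation in three min.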

Jak2, sequence (O60674 whole entry, looked up): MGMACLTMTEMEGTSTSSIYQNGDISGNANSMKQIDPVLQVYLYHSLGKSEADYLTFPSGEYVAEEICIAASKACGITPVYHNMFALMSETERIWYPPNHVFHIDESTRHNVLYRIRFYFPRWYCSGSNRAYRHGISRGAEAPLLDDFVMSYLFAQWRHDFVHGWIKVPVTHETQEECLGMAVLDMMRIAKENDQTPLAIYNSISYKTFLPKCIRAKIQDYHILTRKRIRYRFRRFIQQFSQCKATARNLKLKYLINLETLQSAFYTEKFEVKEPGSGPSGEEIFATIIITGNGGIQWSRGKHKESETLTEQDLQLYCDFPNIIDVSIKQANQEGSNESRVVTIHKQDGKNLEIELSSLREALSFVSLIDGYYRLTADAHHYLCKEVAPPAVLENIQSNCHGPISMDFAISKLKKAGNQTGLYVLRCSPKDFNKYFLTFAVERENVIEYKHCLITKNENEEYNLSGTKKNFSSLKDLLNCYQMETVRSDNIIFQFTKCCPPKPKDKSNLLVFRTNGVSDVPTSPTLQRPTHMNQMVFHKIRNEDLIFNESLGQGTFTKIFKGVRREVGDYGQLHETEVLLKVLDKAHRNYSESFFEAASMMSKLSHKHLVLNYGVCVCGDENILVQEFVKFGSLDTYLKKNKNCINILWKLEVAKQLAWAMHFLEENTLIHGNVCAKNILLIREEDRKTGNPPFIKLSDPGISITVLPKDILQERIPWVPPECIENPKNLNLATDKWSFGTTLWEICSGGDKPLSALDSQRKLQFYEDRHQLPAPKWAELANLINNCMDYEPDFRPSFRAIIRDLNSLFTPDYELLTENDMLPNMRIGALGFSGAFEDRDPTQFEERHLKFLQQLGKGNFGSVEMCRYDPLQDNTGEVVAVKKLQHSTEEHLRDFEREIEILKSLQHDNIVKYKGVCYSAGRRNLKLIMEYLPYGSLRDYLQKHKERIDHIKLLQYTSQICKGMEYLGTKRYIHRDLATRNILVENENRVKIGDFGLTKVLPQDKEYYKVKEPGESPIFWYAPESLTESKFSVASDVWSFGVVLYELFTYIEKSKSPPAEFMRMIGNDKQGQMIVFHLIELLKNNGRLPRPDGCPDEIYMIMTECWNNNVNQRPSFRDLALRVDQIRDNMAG
MERTK, sequence (Q12866 whole entry, looked up): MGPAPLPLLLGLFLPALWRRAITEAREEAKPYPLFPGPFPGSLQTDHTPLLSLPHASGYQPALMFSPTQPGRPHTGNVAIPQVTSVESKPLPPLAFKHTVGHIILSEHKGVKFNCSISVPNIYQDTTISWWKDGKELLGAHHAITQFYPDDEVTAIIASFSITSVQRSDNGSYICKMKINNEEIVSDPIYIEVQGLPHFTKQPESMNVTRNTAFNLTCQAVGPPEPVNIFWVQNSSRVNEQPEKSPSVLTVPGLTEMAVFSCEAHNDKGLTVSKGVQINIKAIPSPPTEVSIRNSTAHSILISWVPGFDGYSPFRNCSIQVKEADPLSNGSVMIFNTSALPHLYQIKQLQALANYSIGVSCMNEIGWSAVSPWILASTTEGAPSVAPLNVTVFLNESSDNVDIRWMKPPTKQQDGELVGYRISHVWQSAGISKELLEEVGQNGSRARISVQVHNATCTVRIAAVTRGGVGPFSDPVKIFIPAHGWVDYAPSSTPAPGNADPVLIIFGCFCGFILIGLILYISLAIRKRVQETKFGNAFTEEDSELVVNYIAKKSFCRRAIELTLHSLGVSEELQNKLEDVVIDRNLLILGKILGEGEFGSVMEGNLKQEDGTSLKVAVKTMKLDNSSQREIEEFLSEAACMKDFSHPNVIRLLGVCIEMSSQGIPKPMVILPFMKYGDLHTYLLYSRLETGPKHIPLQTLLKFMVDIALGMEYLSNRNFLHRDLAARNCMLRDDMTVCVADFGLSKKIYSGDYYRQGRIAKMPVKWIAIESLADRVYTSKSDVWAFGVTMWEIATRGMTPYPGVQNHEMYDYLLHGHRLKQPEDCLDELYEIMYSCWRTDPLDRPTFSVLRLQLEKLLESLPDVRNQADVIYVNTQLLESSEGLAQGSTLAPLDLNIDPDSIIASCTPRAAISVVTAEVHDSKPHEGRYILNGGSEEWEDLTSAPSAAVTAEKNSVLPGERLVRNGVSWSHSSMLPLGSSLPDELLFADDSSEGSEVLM

Sequence	phosphorylation enrichment [1]	phosphorylation enrichment [2]	phosphorylation enrichment [3]	phosphorylation enrichment [4]	phosphorylation enrichment [5]	phosphorylation enrichment [6]	phosphorylation enrichment [7]	phosphorylation enrichment [8]	phosphorylation enrichment [9]	phosphorylation enrichment [10]	phosphorylation enrichment [11]	phosphorylation enrichment [12]	phosphorylation enrichment [13]	SH2 binding enrichment [14]	SH2 binding enrichment [15]	SH2 binding enrichment [16]
YDAHNYHPLPV [OAT_Y55_G51D]	7.27	1.05	6.52	0.685	0.848	0.622	3.58	1.62	0.871	2.01	0.923	0.864	12.7	1.15	0.697	0.813
YETDYYRKGGK [INSR_Y1190]	0.492	0.752	0.392	0.864	0.83	0.338	0.427	0.419	0.668	0.469	0.41	0.398	0.522	0.675	0.676	0.622
YFRDGYMPRQY [GSS_Y270]	2.73	0.496	0.531	0.74	0.928	0.509	0.418	0.491	0.615	0.402	0.429	0.479	3.74	1.01	0.848	0.627
YFWDGYMPRQY [GSS_Y270_R267W]	9.39	0.565	0.576	1.18	5.42	0.772	3.96	0.521	1.01	0.783	0.68	0.547	10.8	1.11	1.1	1.07
YGMSTYITRED [FNDC3B_Y180]	0.683	0.924	0.745	1.25	1.07	0.981	0.46	0.584	0.972	0.873	0.712	0.852	0.514	0.608	0.576	0.464
YIATQYSLCPR [LBR_Y166_R169C]	1.19	0.716	0.606	0.907	0.873	0.725	1.75	0.817	1.23	0.719	0.511	0.67	1.73	0.885	0.839	0.713
YIGVTYKNKED [PDGFRA_Y993_E996K]	0.747	0.675	0.533	1.07	0.809	0.476	0.44	0.505	0.896	0.753	0.564	0.505	0.819	0.835	1.39	0.961
YQGGTYSKACT [FGG_Y380_S384C]	0.529	0.719	0.38	0.74	0.59	0.436	0.459	0.4	0.52	0.541	0.428	0.383	0.349	0.997	1.03	0.869
YQKDVYDIPPS [NEDD9_Y177]	0.499	0.734	0.611	0.735	0.614	3.26	7.34	3.2	0.954	3.38	0.788	3.66	0.528	0.852	0.531	0.532
YRVAGYKTQGG [TIA1_Y383_E384K]	0.376	1.98	0.363	0.461	0.42	0.435	0.312	0.309	0.509	0.366	0.368	0.494	0.434	0.68	0.553	0.409
YSNKLHYQLEQ [PDPR_Y109_Y109H]	0.592	0.495	0.461	0.782	0.757	0.553	0.484	0.439	1.12	0.535	0.498	0.568	0.435	0.98	0.54	0.606
YSTPPYLLEAA [BRIP1_Y921_S919P]	0.935	1.8	1.09	1.17	1.04	1.6	3.63	0.711	1.77	1.61	0.664	1.56	1.16	0.862	0.811	1.08
YVPSFYHAFSG [ACTN4_Y265_S262P]	1.17	1.06	0.407	0.99	0.794	2.17	7.65	1.03	0.81	1.94	2.09	1.82	1.32	1.2	0.673	0.997

Reference: the supplement of paper PMC10065799, “High-throughput profiling of sequence recognition by tyrosine kinases and SH2 domains using bacterial peptide display” (eLife, 2023)
